Test results from the supplement of paper PMC9233669.
Variants at the floor of the assay were thinned out.

Tests used:
biotinyl-Met-oxazolone = test: self-aminoacylation, catalytic enhancement (BMO) (fold over background); higher = more active; k-Seq, kA / k0A0; sequences stand for … in GGGAAUGGAUCCACAUCUACGAAUUC…UUCACUGCAGACUUGACGAAGCUG
Outline: (§1)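 Catalytic enhancement equals the median kA over the uncatalyzed rate, the latter read from the low-activity peak of a bimodal Gaussian fit. Values of kA came from fitting each sequence's fraction reacted to a pseudo-first-order model, with 1000 bootstraps. Reacted RNA was captured with streptavidin and quantified by triplicate qPCR and Illumina sequencing after 90 minutes at room temperature with 2–1250 μM biotinyl-aminoacyl-oxazolone and 0.43 μM mutagenized RNA pools bearing a 21-nt variable region.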

biotinyl-Ile-oxazolone = test: self-aminoacylation, catalytic enhancement (BIO) (fold over background); higher = more active; k-Seq, kA / k0A0; sequences stand for … in GGGAAUGGAUCCACAUCUACGAAUUC…UUCACUGCAGACUUGACGAAGCUG
Outline: as §1

biotinyl-Leu-oxazolone = test: self-aminoacylation, catalytic enhancement (BLO) (fold over background); higher = more active; k-Seq, kA / k0A0; sequences stand for … in GGGAAUGGAUCCACAUCUACGAAUUC…UUCACUGCAGACUUGACGAAGCUG
Outline: as §1

biotinyl-Val-oxazolone = test: self-aminoacylation, catalytic enhancement (BVO) (fold over background); higher = more active; k-Seq, kA / k0A0; sequences stand for … in GGGAAUGGAUCCACAUCUACGAAUUC…UUCACUGCAGACUUGACGAAGCUG
Outline: as §1

biotinyl-Trp-oxazolone = test: self-aminoacylation, catalytic enhancement (BWO) (fold over background); higher = more active; k-Seq, kA / k0A0; sequences stand for … in GGGAAUGGAUCCACAUCUACGAAUUC…UUCACUGCAGACUUGACGAAGCUG
Outline: as §1

biotinyl-Phe-oxazolone = test: self-aminoacylation, catalytic enhancement (BFO) (fold over background); higher = more active; k-Seq, kA / k0A0; sequences stand for … in GGGAAUGGAUCCACAUCUACGAAUUC…UUCACUGCAGACUUGACGAAGCUG
Outline: as §1

Sequence | self-aminoacylation (biotinyl-Met-oxazolone) | self-aminoacylation (biotinyl-Ile-oxazolone) | self-aminoacylation (biotinyl-Leu-oxazolone) | self-aminoacylation (biotinyl-Val-oxazolone) | self-aminoacylation (biotinyl-Trp-oxazolone) | self-aminoacylation (biotinyl-Phe-oxazolone)
AGUACCCUGUUCAUCGAGUGA [Fam2.1 aminoacylation ribozyme variant] | 4.14 | 2.36 | 4.46 | 2.45 | 4.52 | 17.4
AAUACCCUGGUCAUCGAGGGA [Fam2.1 aminoacylation ribozyme variant] | 1.18 | 1.51 | 1.58 | 1.94 | 1.85 | 1.13
ACACAUUUCAAGCAAUCGGUC [Fam1B.1 aminoacylation ribozyme variant] | 1.12 | 1.2 | 1.12 | 1.41 | 1.86 | 2.41
CCACACCUCAAGCAAGCGGUC [Fam1B.1 aminoacylation ribozyme variant] | 1.02 | 1.34 | 0.921 | 1.21 | 1.32 | 1.27
AUUCUGCUAGGUCAUCGGGUG [Fam2.2 aminoacylation ribozyme variant] | 9.46 | 5.96 | 12 | 6.13 | 9.84 | 72.1
CUACUUCAAACCGUCGGUCUG [Fam1A.1 aminoacylation ribozyme variant] | 0.847 | 0.831 | 0.71 | 0.917 | 0.872 | 0.289
CCACACUAGAAGCAAUCGGUC [Fam1B.1 aminoacylation ribozyme variant] | 0.747 | 0.809 | 0.954 | 0.961 | 0.873 | 0.713
AUUUACCUAGGUCAUCGGAUG [Fam2.2 aminoacylation ribozyme variant] | 0.954 | 0.906 | 0.846 | 0.974 | 0.671 | 0.723
AAGUCUGCUCAUAGUCGCAAG [Fam3.1 aminoacylation ribozyme variant] | 1.29 | 1.16 | 1.08 | 1.18 | 4.23 | 8.38
AAUCACCUAGGUCAUCGGGUG [Fam2.2 aminoacylation ribozyme variant] | 7.92 | 5.67 | 9.15 | 5.65 | 8.58 | 42.9
AUUACUCUGGUCAUCGAGUGC [Fam2.1 aminoacylation ribozyme variant] | 1.19 | 1.1 | 1.42 | 1.05 | 1.32 | 0.969
AUUGAACUAGGUCAUCGGGUG [Fam2.2 aminoacylation ribozyme variant] | 4.33 | 3.36 | 4.62 | 3.28 | 5.03 | 30
AAUACCCUGGUAAUCGAGUGA [Fam2.1 aminoacylation ribozyme variant] | 7.38 | 3.96 | 8.53 | 3.37 | 10.3 | 38.5
AUUCACCUAGGUCAUCGGAUA [Fam2.2 aminoacylation ribozyme variant] | 0.754 | 0.894 | 0.877 | 1.2 | 0.615 | 0.865
CCACAUUUCAAGCAAUCGGUU [Fam1B.1 aminoacylation ribozyme variant] | 1.62 | 1.59 | 1.56 | 1.71 | 1.2 | 1.25
CUUCACCGAGGUCAUCGGGUG [Fam2.2 aminoacylation ribozyme variant] | 6.2 | 3.01 | 7.45 | 4.68 | 5.44 | 59.7
CUACUUCAUACAAUCUGUCUG [Fam1A.1 aminoacylation ribozyme variant] | 0.64 | 0.668 | 0.566 | 0.682 | 0.424 | 0.66
CCACAGUUCACGCAAUCGGUC [Fam1B.1 aminoacylation ribozyme variant] | 1.51 | 1.45 | 1.73 | 1.86 | 2.1 | 3.2
CUACUUCAAAGAAUCGGUCUU [Fam1A.1 aminoacylation ribozyme variant] | 0.926 | 1.29 | 1.14 | 1.06 | 2.13 | 2.46
AUUCGCCUAGGACAUCGGGUG [Fam2.2 aminoacylation ribozyme variant] | 3.03 | 2.29 | 4.25 | 3.02 | 3.67 | 19.1
UCACACUUCAAGCAAUCAGUC [Fam1B.1 aminoacylation ribozyme variant] | 0.645 | 0.777 | 0.817 | 0.932 | 5.72 | 17.9
AUUCACCUAGUUCAUUGGGUG [Fam2.2 aminoacylation ribozyme variant] | 2.54 | 1.85 | 3.47 | 1.62 | 2.83 | 18.9
AAGUUUGCUACUAGUCCCAAG [Fam3.1 aminoacylation ribozyme variant] | 0.931 | 0.894 | 0.899 | 0.759 | 0.786 | 0.773
AAGUUUGCUAAUAGUCGCACC [Fam3.1 aminoacylation ribozyme variant] | 0.569 | 0.81 | 0.718 | 0.756 | 0.849 | 1.29
UAGUUUGCUAAUAGUCGCUAG [Fam3.1 aminoacylation ribozyme variant] | 1.01 | 1.18 | 1.13 | 1.13 | 1.08 | 1.68
AUUCCCCUAGGUGAUCGGGUG [Fam2.2 aminoacylation ribozyme variant] | 10.9 | 7.9 | 11.8 | 7.89 | 10.8 | 47.7

Sequence | self-aminoacylation (biotinyl-Met-oxazolone) | self-aminoacylation (biotinyl-Ile-oxazolone) | self-aminoacylation (biotinyl-Leu-oxazolone) | self-aminoacylation (biotinyl-Val-oxazolone) | self-aminoacylation (biotinyl-Trp-oxazolone) | self-aminoacylation (biotinyl-Phe-oxazolone)
AGUCACCUCGGUCAUCGGGUG [Fam2.2 aminoacylation ribozyme variant] | 6.27 | 4.47 | 6.23 | 4.18 | 7.18 | 44.4
AAGUUUGCUAAUAGACGCACG [Fam3.1 aminoacylation ribozyme variant] | 0.472 | 0.543 | 0.365 | 0.528 | 0.572 | 0.811
AUUCAUCUAGGUCAUCGGGAG [Fam2.2 aminoacylation ribozyme variant] | 0.945 | 1.11 | 0.697 | 1.16 | 1.36 | 0.786
GUUCACCUAGCUCAUCGGGUG [Fam2.2 aminoacylation ribozyme variant] | 1.64 | 1.55 | 2.06 | 1.91 | 2.86 | 1.08
AUUCACCUAGGUCAUGGGGUC [Fam2.2 aminoacylation ribozyme variant] | 1.39 | 1.32 | 1.2 | 1.4 | 1 | 1.36
AUCACCCUGGUCUUCGAGUGA [Fam2.1 aminoacylation ribozyme variant] | 8.01 | 3.81 | 8.44 | 4.74 | 9.14 | 50.3
CUACUUCAAAAAUUCGGUCUG [Fam1A.1 aminoacylation ribozyme variant] | 1.37 | 1.44 | 1.65 | 1.45 | 1.12 | 3.5
CCUCACAUCAAGCAAUCGGUC [Fam1B.1 aminoacylation ribozyme variant] | 0.749 | 0.87 | 0.726 | 0.973 | 1.05 | 1.77
AUUCACGUACGUCAUCGGGUG [Fam2.2 aminoacylation ribozyme variant] | 12.2 | 6.46 | 12.8 | 6.9 | 9.47 | 79.8
AUACUUCAAACAAUCGGUGUG [Fam1A.1 aminoacylation ribozyme variant] | 1.22 | 1.05 | 1.25 | 0.94 | 2.68 | 3.81
AUUACCCUGGCCAUCCAGUGA [Fam2.1 aminoacylation ribozyme variant] | 7.34 | 4.38 | 8.23 | 4.01 | 7.75 | 35.9
AUUUCCGUGGUCAUCGAGUGA [Fam2.1 aminoacylation ribozyme variant] | 6.67 | 3.67 | 6.35 | 4.26 | 8.19 | 52.8
CUACUUCAAACAAUCGUUGUG [Fam1A.1 aminoacylation ribozyme variant] | 1.68 | 1.17 | 1.7 | 1.15 | 1.38 | 1.69
CAGUUUGCUAUUAGUCGCAAG [Fam3.1 aminoacylation ribozyme variant] | 1.25 | 1.24 | 1.5 | 1.22 | 1.29 | 1.88
CCAGACUUCAACCAAUCGGUC [Fam1B.1 aminoacylation ribozyme variant] | 1.63 | 1.39 | 2.1 | 1.72 | 31.4 | 51.2
AAGUUUGAUAAUACUCGCAAG [Fam3.1 aminoacylation ribozyme variant] | 0.617 | 0.638 | 0.493 | 0.511 | 0.52 | 0.788
CUGAUUCAAACAAUCGGUCUG [Fam1A.1 aminoacylation ribozyme variant] | 0.923 | 0.947 | 1.14 | 0.828 | 6.12 | 9.61
AUUCCCCUGGUCAUCGAGGGA [Fam2.1 aminoacylation ribozyme variant] | 1.29 | 1.42 | 1.56 | 1.55 | 1.99 | 1.62
CUACUUCAAACAAUCGUUCGG [Fam1A.1 aminoacylation ribozyme variant] | 0.641 | 0.787 | 0.637 | 0.623 | 0.473 | 0.675
AUUCAUCUCGGUCAUCGGGUG [Fam2.2 aminoacylation ribozyme variant] | 6.97 | 4.65 | 9.9 | 4.55 | 6.85 | 49.8
AUUACCCUGGUGCUCGAGUGA [Fam2.1 aminoacylation ribozyme variant] | 3.93 | 2.14 | 4.67 | 2.38 | 5.2 | 25
CUACAUCAAACAAUCUGUCUG [Fam1A.1 aminoacylation ribozyme variant] | 0.533 | 0.722 | 0.624 | 0.736 | 0.497 | 0.795
AAGUUAGCUAAUAGUCGCAGG [Fam3.1 aminoacylation ribozyme variant] | 1.6 | 1.76 | 1.62 | 1.8 | 1.77 | 4.27
AAGUUUGCAAAUUGUCGCAAG [Fam3.1 aminoacylation ribozyme variant] | 1.47 | 1.26 | 1.57 | 1.19 | 1.53 | 0.968
CUACUUCAAACCAUCGAUCUG [Fam1A.1 aminoacylation ribozyme variant] | 0.614 | 0.685 | 0.529 | 0.777 | 0.581 | 0.733
